Results from article PMC4014539, “PEG-Protein Interaction Induced Contraction of NalD Chains” (PLoS ONE, 2014).

Molecular target: the molecule itself
Test: AUC; Beckman Optima XL-I, UV detection at 280 nm, 45,000 rpm, 20°C; NalD in aqueous solution before addition of PEG3350; apparent molar masses from peak positions

B1: NalD (natural protein)
chain: MRRTKEDSEKTRTAILLAAEELFLEKGVSHTSLEQIARAAGVTRGAVYWHFQNKAHLFNEMLNQVRLPPEQLTERLSGCDGSDPLRSLYDLCLEAVQSLLTQEKKRRILTILMQRCEFTEELREAQERNNAFVQMFIELCEQLFARDECRVRLHPGMTPRIASRALHALILGLFNDWLRDPRLFDPDTDAEHLLEPMFRGLVRDWGQASSAP
notes: NalD, TetR family repressor of the MexAB-OprM multi-drug efflux operon, Pseudomonas aeruginosa PAO1; a protein of 212 amino acids; nalD gene amplified by PCR and cloned into PET-30a between NdeI and XhoI; also called NalD protein; regulator of MexAB-OprM multi-drug efflux systems; source: E. coli BL21 star (DE3), purified (SFF, Heparin, Ni-NTA, monoQ columns)
B1: binds.
